Experiments:
[1] = biological target: M13 bacteriophage incorporated into PEDOT nanowires (M13 bacteriophage); assay: electrical resistance of virus-PEDOT nanowire array in PBF
[2] = biological target: M13 bacteriophage incorporated into PEDOT nanowires (M13 bacteriophage); assay: electrical resistance of virus-PEDOT nanowire array in PBF, 99 nM antibody

Q: For “Anti-M13 antibody (p-Ab, GE Healthcare Life Sciences)”, which limit of detection [1] is on record?
A: 20 nM

Q: And the increase in the resistance (ΔR/R0) at 99 nM antibody [2]?
A: 40%

— patent publication US8525237
